Where no end group is shown, it is not given here.

In one test the test system is MCF7-Neo cells. In words: Microinjection of ANK peptide then nocodazole, mitotic arrest/apoptosis count. The test is classed as cell-based. The following applies: cells without ANK injection, 0.5 μM nocodazole for 24 hours. Here is the method:
ANK peptide interference with SNCG-BubR1 association in vivo was examined in a stable breast cancer cell line MCF7 expressing SNCG (MCF7-SNCG) and a control SNCG negative cell line (MCF7-Neo). […] Significant numbers of cells survived after treatment with the ANK peptide by microinjection in both cell lines. After microinjection, cells were treated with 0.5 μM nocodazole for 24 hours and the fraction of mitotically arrested cells was counted.
MCF7-SNCG and MCF-Neo were grown to 80% confluence, split with trypsin and seeded on a 22 mm glass coverslip treated with human fibronectin ([…]) into 60 mm diameter dishes containing cell maintenance medium for 24 hours and utilized for the experiments. In initial experiments ANK peptide (5, 10 or 100 μM) was microinjected. In all further experiment to date, ANK peptide (10 μM), together with goat IgG (1 mg/ml) and fluoroscein isothiocyanate (FITC, 5 mg/ml; Molecular Probes) into the MCF7-SNCG or MCF7-Neo cells under a 40× magnification of phase contrast microscope (Carl Zeiss Inc.) using a pressure injection system (Femtojet, Eppendorf). To exclude the possibility that microinjection might affect cell cycle and proliferation, MCF7-Neo and MCF7-SNCG were microinjected with goat IgG as a control. Injections were done at a constant flow setup by varying the injection pressure Pc between 40-70 units. The microscope stage was kept at 37° C. using thermal control device (Tempcontrol-37-2 Digital). Approximately 25-30 cells were microinjected in each experiment (n=3). Cells were quickly incubated to revive. […]
For the immunofluorescence experiments, cells were fixed in 0.5% buffered paraformaldehyde for 8 minutes at room temperature. […] Cells were scored by identifying cells containing Alexa Fluor 488 excited at 488 nm, and the emission measured at 500-535 nm; DAPI was excited at 345 nm and the emission was measured at 445 nm. […] Mitotic index was determined as described by Gupta et al. (Oncogene 2003 22:7593-7599) and Inaba et al. Breast Cancer Res. Treat. […]

The target in another test is SNCG (Homo sapiens, UniProt O76070). The test can be described thus: Co-immunoprecipitation of EGFP-ANK deletion peptides with anti-SNCG antibody. Particulars: MCF7-neo and MCF7-SNCG clones transfected with pEGFP-ANK deletion peptide plasmids. Further details: expressed in transfected cells; host or cells: MCF7-SNCG (MCF7 stably expressing SNCG). It counts as binding.
Test [1] deals with SNCG expressed in cells (MCF7-SNCG, T47D, or COS7 transfected with pCI-SNCG) (UniProt O76070 1-127, limits assumed). The test can be described thus: cell-based or functional assay.
The target in test [2] is T1, glutathione S-transferase (GST)-SNCG fusion protein (human, UniProt O76070 1-127).
T1 construct: Expressed in E. coli BL21 (DE3), eluted with reduced glutathione; Used as analyte in SPR, in the cell in ITC and as bait in the GST pull-down; not shown: glutathione S-transferase tag encoded by the pGEX-4T-3 vector (Amersham Biosciences); vector linker with thrombin site between GST and the BamH1 site
In words: ITC, ANK peptide titrated into GST-SNCG, sequential binding site model, first binding site.

For test [3], the target named is T2, glutathione S-transferase (GST) (UniProt P08515 1-218 = GST).
T2 construct: Control for GST-SNCG in SPR
The test can be described thus: SPR (BIACORE 3000), ANK peptide immobilised, GST as analyte. On the technique in general: Surface plasmon resonance follows binding to a sensor surface in real time, without labels.

Test [4] concerns the target T3, synuclein-gamma (SNCG), recombinant, released from GST-SNCG by thrombin (human, UniProt O76070 1-127).
T3 construct: 15N-labelled for NMR; also called native SNCG; Breast Cancer Specific Gene 1
The test can be described thus: intrinsic tyrosine fluorescence of 30 µM SNCG titrated with ANK peptide.

Test [5] addresses T1, glutathione S-transferase (GST)-SNCG …. The test can be described thus: SPR, ANK peptide immobilised, GST-SNCG analyte, apparent overall Kd.
For test [6] the target is unchanged. In words: SPR, ANK peptide immobilised, GST-SNCG analyte, global fit, two-phase reaction (conformation change) model, kd2.
Test [7] has the same target. In words: SPR, ANK peptide immobilised, GST-SNCG analyte, global fit, two-phase reaction (conformation change) model, kd1.

T1 sequence (O76070 whole entry, the tested form may be a part): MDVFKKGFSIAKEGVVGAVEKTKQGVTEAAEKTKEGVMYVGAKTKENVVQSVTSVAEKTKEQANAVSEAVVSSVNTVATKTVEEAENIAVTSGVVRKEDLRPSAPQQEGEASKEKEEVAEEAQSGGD
SNCG expressed in cells (MCF7-SNCG, T47D, or COS7 transfected with pCI-SNCG), sequence (O76070 whole entry, stated change not applied, the tested form may be a part): as the sequence (O76070 whole entry, the tested form may be a part) above
SNCG, sequence (O76070 whole entry): as the sequence (O76070 whole entry, the tested form may be a part) above
T3 sequence (O76070 whole entry): as the sequence (O76070 whole entry, the tested form may be a part) above
T2 sequence (P08515 whole entry): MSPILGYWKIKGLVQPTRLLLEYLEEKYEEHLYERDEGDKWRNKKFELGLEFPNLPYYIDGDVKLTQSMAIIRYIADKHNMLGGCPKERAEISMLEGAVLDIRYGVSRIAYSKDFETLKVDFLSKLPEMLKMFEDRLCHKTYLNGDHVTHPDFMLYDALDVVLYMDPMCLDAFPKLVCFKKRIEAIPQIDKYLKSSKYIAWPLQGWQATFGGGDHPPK

In the case of `COC(=O)Nc1nc2ccc(C(=O)c3cccs3)cc2[nH]1` [nocodazole, reference compound], the “degree of mitotic arrest in MCF7-Neo cells as compared to MCF7-SNCG cells” value with MCF7-Neo cells is reported as “significantly higher degree of mitotic arrest”.

Consider “EGFP-ANK deletion peptide P8: EGFP fusion of deletion peptide P8 GANVTMQN, expressed from pEGFP-C2 plasmid in cells (not fully specified (N-terminus); also: EGFP fusion protein (recombinant))”, for which the “interaction with SNCG by co-IP” value with SNCG is “identified to interact”.

Take “EGFP-ANK deletion peptide P12: EGFP fusion of deletion peptide P12 GNSALHVASQHG, expressed from pEGFP-C2 plasmid in cells (not fully specified (N-terminus); also: EGFP fusion protein (recombinant))”: the “interaction with SNCG by co-IP” value with SNCG is recorded as “identified to interact”.

In the case of KGNSALHVASQHGHLGCIQTLVRYGANVTMQNHG (other, not shown: large carriers, not fully specified (N-terminus); also: EGFP fusion protein (recombinant)) [enhanced green fluorescent protein (EGFP)-ANK fusion protein], in test [1], the “apoptotic cell populations (DAPI staining) after paclitaxel” value came out at 5 fold; the “apoptotic/dead cell population, flow cytometric cell cycle analysis after 0.5 µM paclitaxel, MCF7-SNCG cells” value was approximately 4 fold; the “positive phosphorylated histones (anti-phospho-H3 staining, flow cytometry), MCF7-SNCG cells” value amounted to 3.5 fold.

B1: ANK peptide KGNSALHVASQHGHLGCIQTLVRYGANVTMQNHG (SEQ ID NO:1) (peptide)
peptide: Ac-KGNSALHVASQHGHLGCIQTLVRYGANVTMQNHG-NH2
notes: For SPR it was immobilised on a CM5 chip by ligand thiol coupling; also called ankyrin repeat-like peptide
With B1, the Kd in [2] was 70 µM; in [4] it was approximately 100 µM; in test [5], 73.4 µM. The same molecule gave a ΔH in [2] of 2.17 kcal/mol. Besides, the binding result in [3] is listed as “no binding”. Besides, the values for the off-rate constant (koff) in test [6] and in test [7] were 0.000802 s⁻¹ and 0.014 s⁻¹, respectively.

(Values after patent US7897568B2, “Compositions for treatment of cancer” (priority 2006, dated 2011).)
